From patent publication US20240199757A1 (UNIVERSITY OF CHICAGO, published 2024)
Read-outs that look alike come from different tables or passages of the source.

Experiments:
[1] = target: T1, Full-length murine NT5E (recombinant) (murine, UniProt Q61503 29-552); assay: SPR, His-captured NT5E, no ATP
T1 construct: also called mNT5E
T1 sequence: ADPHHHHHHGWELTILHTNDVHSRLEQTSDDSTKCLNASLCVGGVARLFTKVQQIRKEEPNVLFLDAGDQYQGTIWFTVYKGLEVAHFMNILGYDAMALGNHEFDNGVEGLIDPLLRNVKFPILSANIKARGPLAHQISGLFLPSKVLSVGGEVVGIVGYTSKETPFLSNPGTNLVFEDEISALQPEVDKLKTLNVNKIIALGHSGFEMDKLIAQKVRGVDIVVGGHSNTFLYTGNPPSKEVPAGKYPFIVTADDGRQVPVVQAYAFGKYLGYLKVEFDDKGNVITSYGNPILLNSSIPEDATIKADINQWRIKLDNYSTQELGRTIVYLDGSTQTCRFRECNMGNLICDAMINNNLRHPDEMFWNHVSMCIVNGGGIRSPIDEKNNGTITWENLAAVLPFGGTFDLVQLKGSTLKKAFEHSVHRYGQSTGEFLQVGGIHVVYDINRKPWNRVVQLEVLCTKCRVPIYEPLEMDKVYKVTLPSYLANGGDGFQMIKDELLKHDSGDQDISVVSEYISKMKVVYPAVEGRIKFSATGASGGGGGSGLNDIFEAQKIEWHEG
Method: (§1) All SPR experiments were performed at 25° C. using MASS-1 (Bruker) instrument. hNT5E, mNT5E and cNT5E were immobilized onto a nitrilotriacetic acid (NTA) sensor chip via His-tag. For kinetic experiments, after ligand immobilization, 2-fold serial dilutions of the Fabs were injected. After double-reference subtraction data were analyzed with BiaEvaluation (GE Healthcare) or Sierra Analyser (Bruker) software. The experiments were carried in buffers in presence and absence of 1 mM ATP to compare the kinetic parameters of the Fabs binding to closed and open form of NT5E.

[2] = target: T2, Full-length human NT5E (recombinant, in-house) (human, UniProt P21589 27-549); assay: SPR, His-captured NT5E, no ATP
T2 construct: also called hNT5E; hNT5EWT
T2 sequence: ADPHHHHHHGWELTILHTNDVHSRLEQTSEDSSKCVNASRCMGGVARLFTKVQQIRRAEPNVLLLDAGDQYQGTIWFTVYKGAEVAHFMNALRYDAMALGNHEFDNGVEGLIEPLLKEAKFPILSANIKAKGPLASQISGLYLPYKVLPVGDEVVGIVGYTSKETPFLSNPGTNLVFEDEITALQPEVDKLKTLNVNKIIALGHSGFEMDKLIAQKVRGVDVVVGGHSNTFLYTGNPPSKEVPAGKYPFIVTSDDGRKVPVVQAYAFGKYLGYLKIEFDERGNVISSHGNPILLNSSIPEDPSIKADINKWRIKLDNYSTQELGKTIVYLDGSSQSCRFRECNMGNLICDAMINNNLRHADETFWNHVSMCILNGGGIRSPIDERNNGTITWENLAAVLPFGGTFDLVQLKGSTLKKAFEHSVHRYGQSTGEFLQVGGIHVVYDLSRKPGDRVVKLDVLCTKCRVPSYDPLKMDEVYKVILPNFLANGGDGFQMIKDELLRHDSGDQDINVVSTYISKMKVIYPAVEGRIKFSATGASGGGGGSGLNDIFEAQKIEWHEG
Method: as §1

[3] = target: T1, Full-length murine NT5E (recombinant); assay: SPR, His-captured NT5E, 1 mM ATP
Method: as §1

[4] = target: T2, Full-length human NT5E (recombinant, …); assay: SPR, His-captured NT5E, 1 mM ATP
Method: as §1

[5] = target: T1, Full-length murine NT5E (recombinant); assay: SPR, His-captured NT5E, no ATP (* Data generated poor fits)
Method: as §1

[6] = target: T3, human NT5E expressed on MDA-MB-231 cells (human, UniProt P21589 27-549); assay: cell-based or functional assay
T3 sequence (looked up): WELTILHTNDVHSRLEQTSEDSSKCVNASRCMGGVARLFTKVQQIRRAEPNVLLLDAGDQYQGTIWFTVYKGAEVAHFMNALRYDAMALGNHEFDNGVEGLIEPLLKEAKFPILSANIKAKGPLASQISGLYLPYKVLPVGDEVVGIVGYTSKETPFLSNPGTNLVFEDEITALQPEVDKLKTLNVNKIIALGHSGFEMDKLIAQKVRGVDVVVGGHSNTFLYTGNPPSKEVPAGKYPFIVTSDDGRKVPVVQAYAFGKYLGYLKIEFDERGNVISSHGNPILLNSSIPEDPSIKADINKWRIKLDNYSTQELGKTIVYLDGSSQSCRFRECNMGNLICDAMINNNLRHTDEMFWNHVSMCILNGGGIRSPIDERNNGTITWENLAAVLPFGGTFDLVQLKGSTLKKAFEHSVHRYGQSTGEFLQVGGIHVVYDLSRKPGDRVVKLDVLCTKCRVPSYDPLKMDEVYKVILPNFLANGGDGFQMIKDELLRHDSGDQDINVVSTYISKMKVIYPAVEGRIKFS

[7] = target: T3, human NT5E expressed on MDA-MB-231 cells; assay: flow cytometry on MDA-MB-231 cells, 1 mM ATP
Method: (§2) Flow cytometry analysis of antibodies binding to human NT5E expressed on MDA-MB-231 cells in ATP-free condition (black) or in 1 mM ATP (red). Top panel: (left) 1780 Fab and (right) 1780 IgG titrations. […] Binding was measured at the indicated range of antibody concentrations and is expressed as mean±st. dev of median fluorescence intensity (MFI) of 1-2 replicates. Data were analyzed using OriginLab, and EC₅₀ values are shown next to the fitted curves.
(§3) Human MDA-MB-231 cells and murine 4T1 cells were grown to 90% confluency, detached with 5 mM EDTA for 15 min at 37° C. and then resuspended in 37° C. lx PBS (#10010031, Gibco) supplemented with 1% FBS and 1OpM ZnCl2. Separate working buffers (WB) of PBS and 1% FBS with or without fixed nucleotide concentrations were used throughout all washing steps to maintain constant condition. In 96-well plates (#3799, Costar), 0.2×10⁶ cells were added per well. The plates were spun at 500×g for 5 min and the supernatant was removed. Anti-NT5E antibodies were diluted to the desired concentration in 100 μL WB, added to the cells and the plates were incubated for 20 min at 37° C. Plates were spun and cells were washed twice with WB then spun a second time. Cells were stained with 100 μL of secondary antibody (Alexa Fluor 647 AffiniPure Goat Anti-Human IgG, F(ab′)2 fragment specific, #109-605-006, Jackson, 1:200) dilution and plates were incubated for 20 min at 37° C. Cells were washed twice with WB then fixed on ice with WB supplemented with 0.5% PFA. Fixing solution was removed by centrifugation and cells were resuspended in cold 1× PBS. Samples were analyzed by flow cytometry using CytoFLEX (Beckman Coulter) and mean fluorescence intensity (MFI) data was extracted using FlowJo software. Resulting binding data was plotted using OriginLab.

[8] = target: T3, human NT5E expressed on MDA-MB-231 cells; assay: cell-based or functional assay; remark: listed apart in the source
[9] = target: T3, human NT5E expressed on MDA-MB-231 cells; assay: flow cytometry on MDA-MB-231 cells, 1 mM ATP; remark: listed apart in the source
Method: as §2, §3

[10] = target: T2, Full-length human NT5E (recombinant, …); assay: SPR, hNT5E-6xHis on NTA chip, primary Fab injection; Fab concentration and ATP condition not given
Method: After incubation, the remaining NT5E is probed with αStrep-HRP Ab. If there is competition for binding to NT5E, then a decrease in signal would be expected.
as §1

B1: 1789 AM32 Fab (Fab, V domains shown)
VH: EVQLVESGGGLVQPGGSLRLSCAASGFNVSYSSIHWVRQAPGKGLEWVARIRGNEGDTYYADSVKGRFTISADTSKNTAYLQMNSLRAEDTAVYYCARNYWGWYPFYYFAFDYWGQGTLVTV
VL: DIQMTQSPSSLSASVGDRVTITCRASQSVSSAVAWYQQKPGKAPKLLIYSASSLYSGVPSRFSGSRSGTDFTLTISSLQPEDFATYYCQQGWDYPITFGQGTKVEIKR
notes: also called Fab32
Kd [1]: 150 nM
koff [1]: 0.011 s⁻¹
kon [1]: 78000 M⁻¹ s⁻¹
Kd [2]: 86 nM
koff [2]: 0.0091 s⁻¹
kon [2]: 110000 M⁻¹ s⁻¹
Kd [3]: 15 nM
koff [3]: 0.0028 s⁻¹
kon [3]: 190000 M⁻¹ s⁻¹
Kd [4]: 15 nM
koff [4]: 0.0042 s⁻¹
kon [4]: 270000 M⁻¹ s⁻¹

B2: 1789 AM39 Fab (Fab, V domains shown)
VH: EVQLVESGGGLVQPGGSLRLSCAASGFNVSYSSIHWVRQAPGKGLEWVASIRGAGSDTRYADSVKGRFTISADTSKNTAYLQMNSLRAEDTAVYYCARNYWGWYPFYYFAFDYWGQGTLVTV
VL: DIQMTQSPSSLSASVGDRVTITCRASQSVSSAVAWYQQKPGKAPKLLIYSASSLYSGVPSRFSGSRSGTDFTLTISSLQPEDFATYYCQQGWDYPITFGQGTKVEIKR
koff [1]: 0.013 s⁻¹
kon [1]: 140000 M⁻¹ s⁻¹
Kd [2]: 35 nM
koff [2]: 0.0099 s⁻¹
kon [2]: 280000 M⁻¹ s⁻¹
Kd [5]: 99 nM
Kd [3]: 12 nM
koff [3]: 0.0035 s⁻¹
kon [3]: 290000 M⁻¹ s⁻¹
Kd [4]: 7.9 nM
koff [4]: 0.0039 s⁻¹
kon [4]: 490000 M⁻¹ s⁻¹

B3: 1789 AM42 Fab (Fab, V domains shown)
VH: EVQLVESGGGLVQPGGSLRLSCAASGFNVSYSSIHWVRQAPGKGLEWVAKIRGGHQDTHYADSVKGRFTISADTSKNTAYLQMNSLRAEDTAVYYCARNYWGWYPFYYFAFDYWGQGTLVTV
VL: DIQMTQSPSSLSASVGDRVTITCRASQSVSSAVAWYQQKPGKAPKLLIYSASSLYSGVPSRFSGSRSGTDFTLTISSLQPEDFATYYCQQGWDYPITFGQGTKVEIKR
Kd [1]: 63 nM
koff [1]: 0.012 s⁻¹
kon [1]: 190000 M⁻¹ s⁻¹
Kd [2]: 38 nM
koff [2]: 0.0067 s⁻¹
kon [2]: 180000 M⁻¹ s⁻¹
Kd [3]: 12 nM
koff [3]: 0.0029 s⁻¹
kon [3]: 250000 M⁻¹ s⁻¹
Kd [4]: 11 nM
koff [4]: 0.0036 s⁻¹
kon [4]: 320000 M⁻¹ s⁻¹

B4: Medi9447 IgG (antibody, V domains shown)
VH: EVQLLESGGGLVQPGGSLRLSCAASGFTFSSYAYSWVRQAPGKGLEWVSAISGSGGRTYYADSVKGRFTISRDNSKNTLYLQMNSLRAEDTAVYYCARLGYGRVDEWGRGTLVTVSS
VL: QSVLTQPPSASGTPGQRVTISCSGSLSNIGRNPVNWYQQLPGTAPKLLIYLDNLRLSGVPDRFSGSKSGTSASLAISGLQSEDEADYYCATWDDSHPGWTFGGGTKLTVLG
IC50 of NT5E activity on MDA-MB-231 cells, no ATP [6]: 0.3 nM
IC50 of NT5E activity on MDA-MB-231 cells, with ATP [6]: 1 nM

B5: 1780 IgG (antibody, V domains shown)
VH: EVQLVESGGGLVQPGGSLRLSCAASGFNFYSYSIHWVRQAPGKGLEWVASISSSSGYTYYADSVKGRFTISADTSKNTAYLQMNSLRAEDTAVYYCARYSWWGWHMEGWWGYMNAFDYWGQGTLVTVSS
VL: DIQMTQSPSSLSASVGDRVTITCRASQSVSSAVAWYQQKPGKAPKLLIYSASSLYSGVPSRFSGSRSGTDFTLTISSLQPEDFATYYCQQAHPKPITFGQGTKVEIKR
EC50 [7]: 28 nM
IC50 of NT5E phosphate production on MDA-MB-231 cells, +500 µM ATP [8]: 50.5 nM
EC50 [9]: 19.6 nM

B6: 1557 Fab (Fab, V domains shown)
VH: EVQLVESGGGLVQPGGSLRLSCAASGFNVYYSSIHWVRQAPGKGLEWVASISSSSGSTSYADSVKGRFTISADTSKNTAYLQMNSLRAEDTAVYYCARYGWWEYGYGGWWHPALDYWGQGTLVTV
VL: DIQMTQSPSSLSASVGDRVTITCRASQSVSSAVAWYQQKPGKAPKLLIYSASSLYSGVPSRFSGSRSGTDFTLTISSLQPEDFATYYCQQVWWGPITFGQGTKVEIKR
binding result [10]: binds
